# ± gives the standard deviation of the averaged measurements.
# System: ATP
# Assay: switch fluorescence ratio, 500 uM ATP over buffer (Cy3 cluster intensity, sum of 5 cycles each) (fold (ratio)); higher = stronger signal-on switching upon ATP binding; sequences stand for … in TCGTCGGCAGCGTCAGATGTGTATAAGAGACAGTTTTTTTTTTTTTTTTTTTTTTTTT…TC
# Settings: aptamer strand: ATP DNA aptamer (quencher-CACCTGGGGGAGTATTGCGGAGGAAGG + anchor), 100 nM annealed; ATP concentration: 500 uM
# Summary of the method: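 Cy3-labelled switching-strand clusters on a modified Illumina MiSeq flow-cell were annealed to 100 nM quencher-labelled ATP aptamer, imaged in selection buffer, then imaged after 15 min with 500 uM ATP at 22 °C. Five buffer/ATP cycles ran, with NaOH stripping and re-annealing between them. The fluorescence ratio is summed target-cycle over summed buffer-cycle Cy3 intensity per cluster, averaged per switch-domain sequence. Clusters outside 100-1000 RFU were excluded.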
# 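Note: ATP exposure 15 min at 22 °C before imaging.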
row,Sequence,switch fluorescence ratio
1,AGTTATAGCT,0.985 ± 0.014
2,AGTTATAGTT,0.997 ± 0.052
3,AGTTCACTAT,0.975 ± 0.011
4,AGTTCATCTT,0.964 ± 0.015
5,AGTTCGATGT,1.01 ± 0.025
6,AGTTCGCTGT,0.9889 ± 0.0067
7,AGTTCGGGGT,1.02 ± 0.024
8,AGTTCGTAGT,1.03 ± 0.049
9,AGTTCGTTTT,0.987 ± 0.019
10,AGTTCTGGGT,1.04 ± 0.081
11,AGTTCTGTTT,0.994 ± 0.047
12,AGTTCTTATT,0.965 ± 0.037
13,AGTTGAAACA,1.02 ± 0.016
14,AGTTGAAGGA,0.986 ± 0.027
15,AGTTGAATT,1.03 ± 0.046
16,AGTTGACGGG,1.03 ± 0.0082
17,AGTTGACTTT,0.986 ± 0.011
18,AGTTGCATGC,0.9677 ± 0.0093
19,AGTTGGGACT,1.016 ± 0.0068
20,AGTTGGGATT,1.032 ± 0.01
21,AGTTGGGTAT,1.02 ± 0.012
22,AGTTGGGTTT,0.9964 ± 0.0071
23,AGTTGGTCGG,0.975 ± 0.031
24,AGTTGGTGAG,0.98 ± 0.034
25,AGTTGGTTTT,1.02 ± 0.033

row,Sequence,switch fluorescence ratio
1,AGTTGTAGGG,1 ± 0.016
2,AGTTGTATGG,0.9738 ± 0.0049
3,AGTTGTGTGC,0.952 ± 0.044
4,AGTTGTGTTA,1.007 ± 0.0057
5,AGTTGTTACA,1.01 ± 0.032
6,AGTTGTTGTT,0.981 ± 0.022
7,AGTTGTTTCG,1.016 ± 0.0023
8,AGTTTAACGC,0.9911 ± 0.0059
9,AGTTTAAGAT,1.005 ± 0.0071
10,AGTTTACGAT,1.037 ± 0.0099
11,AGTTTACTTT,1.03 ± 0.017
12,AGTTTATTTT,0.986 ± 0.034
13,AGTTTCAGGC,1.01 ± 0.031
14,AGTTTCGGAA,1.021 ± 0.0038
15,AGTTTGCTGG,0.996 ± 0.039
16,AGTTTGGCAG,0.998 ± 0.035
17,AGTTTGGCTT,0.99 ± 0.011
18,AGTTTGGGTT,1.01 ± 0.073
19,AGTTTGTGGG,0.984 ± 0.0025
20,AGTTTGTGTG,0.977 ± 0.014
21,AGTTTGTTCC,1.02 ± 0.047
22,AGTTTTAAGG,1 ± 0.025
23,AGTTTTACAA,1.03 ± 0.012
24,AGTTTTACAT,0.9608 ± 0.0018
25,AGTTTTAGCC,1 ± 0.027

row,Sequence,switch fluorescence ratio
1,AGTTTTAGGT,1.02 ± 0.036
2,AGTTTTAGTA,0.974 ± 0.03
3,AGTTTTATCA,0.97 ± 0.015
4,AGTTTTGTCG,1.01 ± 0.022
5,AGTTTTTTTA,0.981 ± 0.018
6,ATAAAAAAGC,1.02 ± 0.074
7,ATAAAAGGCG,1.021 ± 0.0061
8,ATAAAATCTA,1.02 ± 0.061
9,ATAAACTATA,1.04 ± 0.06
10,ATAAAGGGCC,0.99 ± 0.012
11,ATAAAGTTCC,1.13 ± 0.038
12,ATAAATCGAT,1.023 ± 0.0018
13,ATAAATGATA,1 ± 0.049
14,ATAAATGCCG,0.961 ± 0.12
15,ATAACACATG,1.01 ± 0.032
16,ATAACCATCA,0.996 ± 0.057
17,ATAAGAAGCG,1.02 ± 0.04
18,ATAAGCGATT,1.03 ± 0.024
19,ATAAGCGGGG,1.01 ± 0.04
20,ATAAGCTGGT,0.953 ± 0.021
21,ATAAGGAGTA,1 ± 0.016
22,ATAAGGCCTA,0.991 ± 0.038
23,ATAAGGCGAG,0.998 ± 0.025
24,ATAAGGGTAG,1.028 ± 0.0054
25,ATAAGGTCGC,0.927 ± 0.021

row,Sequence,switch fluorescence ratio
1,ATAAGGTTCC,1.091 ± 0.005
2,ATAAGTAACG,1 ± 0.015
3,ATAAGTACTC,1.28 ± 0.1
4,ATAAGTCCGG,1.03 ± 0.042
5,ATAAGTGCAT,1 ± 0.016
6,ATAAGTGTCA,0.9926 ± 0.0067
7,ATAAGTTCTT,0.995 ± 0.033
8,ATAAGTTGGT,0.987 ± 0.046
9,ATAAGTTGTT,0.993 ± 0.02
10,ATAAGTTTTA,0.989 ± 0.0099
11,ATAATACGGG,1.03 ± 0.017
12,ATAATAGGTT,0.986 ± 0.028
13,ATAATATACT,1.04 ± 0.055
14,ATAATATGGT,0.9838 ± 0.0036
15,ATAATATTGG,0.995 ± 0.013
16,ATAATCCTGG,0.987 ± 0.011
17,ATAATCGGGA,0.994 ± 0.034
18,ATAATCTCTA,0.9907 ± 0.0094
19,ATAATGAGTC,0.961 ± 0.013
20,ATAATGGGTA,0.97 ± 0.025
21,ATAATGTATC,1.03 ± 0.018
22,ATAATGTGCA,1.024 ± 0.0071
23,ATAATGTTAC,1.09 ± 0.029
24,ATAATTCATG,0.981 ± 0.029
25,ATAATTCGTA,0.96 ± 0.024

# Source: the supplement of paper PMC10126150
